Laboratory results as given in publication PMC9482650, “Quantitative fragmentomics allow affinity mapping of interactomes” (Nature Communications, 2022).

Legend:
Assay in all cases: holdup assay
Design in all cases: key: below the threshold = too weak to quantify, mostly under pKd 3.1 to 4
Conditions in all cases: plain residues with an end cap or a label only (N-terminal biotin on a linker: ado-ado)
DLG4_1, P78352 = target: DLG4_1, P78352
NOS1, P29475 = target: NOS1, P29475
MPDZ_10, O75970 = target: T1, MPDZ_10, O75970
T1 sequence (O75970 1624-1722, limits assumed, looked up): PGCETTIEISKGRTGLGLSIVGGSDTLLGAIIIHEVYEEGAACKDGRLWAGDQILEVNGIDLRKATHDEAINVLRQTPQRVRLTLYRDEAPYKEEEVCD

MPDZ_5, O75970 = target: T2, MPDZ_5, O75970
T2 sequence (O75970 695-796, limits assumed, looked up): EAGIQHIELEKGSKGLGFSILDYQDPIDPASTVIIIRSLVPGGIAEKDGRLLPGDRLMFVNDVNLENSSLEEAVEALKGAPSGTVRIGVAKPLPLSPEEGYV

IL16_1, Q14005 = target: IL16_1, Q14005
GRIP2_5, Q9C0E4 = target: GRIP2_5, Q9C0E4
TX1BP3, O14907 = target: T3, TX1BP3, O14907
T3 sequence (O14907 10-122, limits assumed, looked up): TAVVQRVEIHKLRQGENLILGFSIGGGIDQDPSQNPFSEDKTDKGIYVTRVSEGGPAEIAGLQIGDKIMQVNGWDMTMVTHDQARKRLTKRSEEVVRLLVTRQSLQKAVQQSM

PICK1, Q9NRD5 = target: PICK1, Q9NRD5
MAGI2_3, Q86UL8 = target: MAGI2_3, Q86UL8
PARD3_3, Q8TEW0 = target: PARD3_3, Q8TEW0
NHERF2_2, Q15599 = target: NHERF2_2, Q15599
MAST2, Q6P0Q8 = target: MAST2, Q6P0Q8
GRIP2_3, Q9C0E4 = target: GRIP2_3, Q9C0E4
LDB3, O75112 = target: LDB3, O75112
APBA1_1, Q02410 = target: T4, APBA1_1, Q02410
T4 sequence (Q02410 651-752, limits assumed, looked up): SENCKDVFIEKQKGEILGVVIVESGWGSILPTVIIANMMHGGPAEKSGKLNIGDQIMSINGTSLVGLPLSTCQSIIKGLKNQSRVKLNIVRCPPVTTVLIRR

NHERF4_4, Q86UT5 = target: NHERF4_4, Q86UT5
NHERF4_2, Q86UT5 = target: NHERF4_2, Q86UT5
MAGI1_1, Q96QZ7 = target: MAGI1_1, Q96QZ7
DLG3_3, Q92796 = target: T5, DLG3_3, Q92796
T5 sequence (Q92796 374-475, limits assumed, looked up): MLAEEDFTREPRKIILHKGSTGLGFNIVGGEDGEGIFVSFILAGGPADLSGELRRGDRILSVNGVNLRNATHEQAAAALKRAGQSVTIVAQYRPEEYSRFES

Inadl_4, Q8NI35 = target: Inadl_4, Q8NI35
APBA1_2, Q02410 = target: T6, APBA1_2, Q02410
T6 sequence (Q02410 742-832, limits assumed, looked up): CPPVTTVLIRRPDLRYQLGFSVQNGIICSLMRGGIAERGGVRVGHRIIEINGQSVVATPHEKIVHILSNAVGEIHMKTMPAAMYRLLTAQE

NHERF3_1, Q5T2W1 = target: T7, NHERF3_1, Q5T2W1
T7 sequence (Q5T2W1 4-100, limits assumed, looked up): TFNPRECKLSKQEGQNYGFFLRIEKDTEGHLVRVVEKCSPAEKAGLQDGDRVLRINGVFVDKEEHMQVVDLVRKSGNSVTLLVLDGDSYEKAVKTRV

ARHGAP21, Q5T5U3 = target: T8, ARHGAP21, Q5T5U3
T8 sequence (Q5T5U3 45-169, limits assumed, looked up): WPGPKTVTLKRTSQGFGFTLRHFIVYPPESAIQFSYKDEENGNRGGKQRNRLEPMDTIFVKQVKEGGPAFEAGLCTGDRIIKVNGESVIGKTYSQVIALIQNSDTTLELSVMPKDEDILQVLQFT

SCRIB_2, Q14160 = target: SCRIB_2, Q14160
MPP7, Q5T2T1 = target: T9, MPP7, Q5T2T1
T9 sequence (Q5T2T1 134-230, limits assumed, looked up): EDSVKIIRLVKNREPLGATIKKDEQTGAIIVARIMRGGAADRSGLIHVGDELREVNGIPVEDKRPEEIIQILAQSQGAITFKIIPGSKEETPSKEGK

GRID2IP_2, A4D2P6 = target: GRID2IP_2, A4D2P6
PDZD2_2, O15018 = target: T10, PDZD2_2, O15018
T10 sequence (O15018 329-429, limits assumed, looked up): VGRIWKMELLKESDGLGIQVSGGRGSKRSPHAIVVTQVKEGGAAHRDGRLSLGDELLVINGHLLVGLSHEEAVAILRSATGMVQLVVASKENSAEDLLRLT

Chain of IL16_1, Q14005 (Q14005 210-306): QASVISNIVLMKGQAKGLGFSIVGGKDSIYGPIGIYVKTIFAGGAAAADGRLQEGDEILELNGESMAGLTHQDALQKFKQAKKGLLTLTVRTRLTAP
Chain of LDB3, O75112 (O75112 1-94): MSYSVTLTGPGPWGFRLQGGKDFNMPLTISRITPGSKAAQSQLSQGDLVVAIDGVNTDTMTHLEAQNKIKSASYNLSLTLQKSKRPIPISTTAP
Chain of MAST2, Q6P0Q8 (Q6P0Q8 1099-1202): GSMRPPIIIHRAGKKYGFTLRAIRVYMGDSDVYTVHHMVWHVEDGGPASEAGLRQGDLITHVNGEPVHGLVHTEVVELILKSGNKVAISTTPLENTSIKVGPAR
Chain of NOS1, P29475 (P29475 9-101): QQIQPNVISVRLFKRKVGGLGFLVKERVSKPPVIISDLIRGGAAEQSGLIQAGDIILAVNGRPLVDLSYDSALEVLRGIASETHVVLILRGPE
Chain of GRIP2_5, Q9C0E4 (Q9C0E4 544-642): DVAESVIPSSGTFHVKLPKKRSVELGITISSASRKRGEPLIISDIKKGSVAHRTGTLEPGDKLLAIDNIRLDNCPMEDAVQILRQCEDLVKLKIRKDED
Chain of MAGI1_1, Q96QZ7 (Q96QZ7 1-106): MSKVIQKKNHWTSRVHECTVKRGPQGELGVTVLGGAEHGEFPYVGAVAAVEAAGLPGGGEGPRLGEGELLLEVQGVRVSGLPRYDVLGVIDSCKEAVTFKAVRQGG
Chain of GRIP2_3, Q9C0E4 (Q9C0E4 238-339): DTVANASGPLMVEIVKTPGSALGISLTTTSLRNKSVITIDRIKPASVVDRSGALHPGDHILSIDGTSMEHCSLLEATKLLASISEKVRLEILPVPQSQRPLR
Chain of DLG4_1, P78352 (P78352 62-152): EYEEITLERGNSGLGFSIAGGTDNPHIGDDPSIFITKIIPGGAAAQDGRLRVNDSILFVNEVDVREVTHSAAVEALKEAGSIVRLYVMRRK
Chain of GRID2IP_2, A4D2P6 (A4D2P6 272-370): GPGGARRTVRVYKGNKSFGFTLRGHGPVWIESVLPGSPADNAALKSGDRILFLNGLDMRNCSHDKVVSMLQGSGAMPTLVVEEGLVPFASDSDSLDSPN
Chain of Inadl_4, Q8NI35 (Q8NI35 547-651): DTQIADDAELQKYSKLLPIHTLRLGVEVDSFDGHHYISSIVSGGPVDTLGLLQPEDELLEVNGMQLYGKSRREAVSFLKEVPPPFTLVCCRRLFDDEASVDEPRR
Chain of PARD3_3, Q8TEW0 (Q8TEW0 582-685): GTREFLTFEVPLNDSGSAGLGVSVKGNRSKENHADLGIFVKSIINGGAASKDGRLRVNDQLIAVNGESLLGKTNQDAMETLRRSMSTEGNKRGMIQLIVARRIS
Chain of NHERF4_4, Q86UT5 (Q86UT5 464-550): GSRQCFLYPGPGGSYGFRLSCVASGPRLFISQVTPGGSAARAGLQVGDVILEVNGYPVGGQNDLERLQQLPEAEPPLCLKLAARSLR
Chain of NHERF4_2, Q86UT5 (Q86UT5 220-308): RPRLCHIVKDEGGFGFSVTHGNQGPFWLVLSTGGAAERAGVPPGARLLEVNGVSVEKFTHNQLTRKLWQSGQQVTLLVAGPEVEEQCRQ
Chain of NHERF2_2, Q15599 (Q15599 142-238): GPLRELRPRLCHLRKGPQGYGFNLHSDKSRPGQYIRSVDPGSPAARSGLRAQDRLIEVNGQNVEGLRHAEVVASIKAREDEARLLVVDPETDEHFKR
Chain of SCRIB_2, Q14160 (Q14160 857-960): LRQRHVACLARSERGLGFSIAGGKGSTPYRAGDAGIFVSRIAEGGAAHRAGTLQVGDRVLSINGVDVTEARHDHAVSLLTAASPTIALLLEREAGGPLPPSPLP
Chain of MAGI2_3, Q86UL8 (Q86UL8 600-682): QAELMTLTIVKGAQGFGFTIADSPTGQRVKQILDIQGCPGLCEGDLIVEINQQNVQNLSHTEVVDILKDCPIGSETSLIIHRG
Chain of PICK1, Q9NRD5 (Q9NRD5 17-115): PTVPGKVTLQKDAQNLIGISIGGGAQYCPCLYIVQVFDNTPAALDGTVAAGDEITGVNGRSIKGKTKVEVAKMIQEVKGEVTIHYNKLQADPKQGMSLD

GTGYDRKDYV [CLDN3, O15551]
pKd (DLG4_1, P78352): below the threshold
pKd (NOS1, P29475): 4.45
pKd (MPDZ_10, O75970): 3.51
pKd (MPDZ_5, O75970): below the threshold
pKd (IL16_1, Q14005): below the threshold
pKd (GRIP2_5, Q9C0E4): below the threshold
pKd (TX1BP3, O14907): below the threshold
pKd (PICK1, Q9NRD5): below the threshold
pKd (MAGI2_3, Q86UL8): 3.48
pKd (PARD3_3, Q8TEW0): 3.52
pKd (NHERF2_2, Q15599): 3.6
pKd (MAST2, Q6P0Q8): below the threshold
pKd (GRIP2_3, Q9C0E4): below the threshold
pKd (LDB3, O75112): below the threshold
pKd (APBA1_1, Q02410): below the threshold
pKd (NHERF4_4, Q86UT5): below the threshold
pKd (NHERF4_2, Q86UT5): below the threshold
pKd (MAGI1_1, Q96QZ7): below the threshold
pKd (DLG3_3, Q92796): 3.64
pKd (Inadl_4, Q8NI35): below the threshold
pKd (APBA1_2, Q02410): 4.24
pKd (NHERF3_1, Q5T2W1): 4.55
pKd (ARHGAP21, Q5T5U3): 3.83
pKd (SCRIB_2, Q14160): below the threshold
pKd (MPP7, Q5T2T1): below the threshold
pKd (GRID2IP_2, A4D2P6): 3.68
pKd (PDZD2_2, O15018): 4.95

RDPPAEWTRV [PTPN18, Q99952]
pKd (DLG4_1, P78352): 4.07
pKd (NOS1, P29475): 3.66
pKd (MPDZ_10, O75970): below the threshold
pKd (MPDZ_5, O75970): below the threshold
pKd (IL16_1, Q14005): below the threshold
pKd (GRIP2_5, Q9C0E4): below the threshold
pKd (TX1BP3, O14907): 4.06
pKd (PICK1, Q9NRD5): below the threshold
pKd (MAGI2_3, Q86UL8): 4.46
pKd (PARD3_3, Q8TEW0): 3.54
pKd (NHERF2_2, Q15599): 4.45
pKd (MAST2, Q6P0Q8): 5.62
pKd (GRIP2_3, Q9C0E4): below the threshold
pKd (LDB3, O75112): below the threshold
pKd (APBA1_1, Q02410): below the threshold
pKd (NHERF4_4, Q86UT5): below the threshold
pKd (NHERF4_2, Q86UT5): below the threshold
pKd (MAGI1_1, Q96QZ7): below the threshold
pKd (DLG3_3, Q92796): below the threshold
pKd (Inadl_4, Q8NI35): below the threshold
pKd (APBA1_2, Q02410): 4.25
pKd (NHERF3_1, Q5T2W1): 4.33
pKd (ARHGAP21, Q5T5U3): 3.95
pKd (SCRIB_2, Q14160): 4.12
pKd (MPP7, Q5T2T1): below the threshold
pKd (GRID2IP_2, A4D2P6): 4.57
pKd (PDZD2_2, O15018): 4.18
